# Assay results as given in US20130288389A1.
# Target: human rPrP^C 23-231 (human) (UniProt P04156)
# Test: cell-based or functional assay
substance,measurement,value
human sporadic CJD (sCJD) brain homogenate PrP-res (from UniProt P04156 23-230),eQuIC seeded conversion of substrate: lowest PrP-res amount detected,1 fg
